Data as given in US20220403048A1, “BINDING MOLECULES TO ARGINASE II [ARG2]” (Cancer Research Technology Limited, priority 2019, published 2022).

B1: C0020065: anti-ARG2 antibody, alternate lead isolation clone, VH SEQ ID NO: 2, VL SEQ ID NO: 7 (antibody, listed as Homo sapiens, V domains shown)
VH: GVNLRESGGGVVQPGRSLRLSCAASGFTFSSYAMHWVRQAPGKGLEWVAVISYDGSNKYYVDSVKGRFTISRDNSKNTLYLQMNSLRAEDTAVYYCARDSSQLWFDYWGRGTLVTVSS
VL: QSVVTQPPSVSGAPGQRVTISCTGSSSNIGTGYDVHWYQQLPGTAPKLLIYGNSNRPSGVPDRFSGSKSGTSASLAITGLQAEDEADYYCQSYDSSLSGSVVFGGGTQLTVL
modifications: C0020065
B2: C0021158 IgG: anti-ARG2 antibody, VH SEQ ID NO: 282, VL SEQ ID NO: 287; IgG and Fab versions carry these sequences (antibody, listed as Homo sapiens, V domains shown)
VH: EVQLLESGGGLVQPGGSLRLSCAASGFTFRYEVAAWVRQAPGKGLEWVSAISGPIPKGYYADSVKGRFTISRDNSKNTLYLQMNSLRAEDTAVYYCARLRADLGLYMDLWGRGTLVTVSS
VL: QSVLTQPPSVSAAPGQKVTISCSGSSSNIGNHYVSWYQQLPGTAPKLLIYDNSERTAGVPDRFSGSKSGTSATLGITGLQTGDEADYYCGTWDELTSNLVFGGGTKLTVL
modifications: C0021158 IgG

What was measured:
[1] = system: recombinant cynomolgus monkey trimeric ARG2 enzyme; assay: Direct binding HTRF assay, cynomolgus trimeric ARG2; conditions: purified scFv, FIG. 1C
Sequence of recombinant cynomolgus monkey trimeric ARG2 enzyme (as listed by the source): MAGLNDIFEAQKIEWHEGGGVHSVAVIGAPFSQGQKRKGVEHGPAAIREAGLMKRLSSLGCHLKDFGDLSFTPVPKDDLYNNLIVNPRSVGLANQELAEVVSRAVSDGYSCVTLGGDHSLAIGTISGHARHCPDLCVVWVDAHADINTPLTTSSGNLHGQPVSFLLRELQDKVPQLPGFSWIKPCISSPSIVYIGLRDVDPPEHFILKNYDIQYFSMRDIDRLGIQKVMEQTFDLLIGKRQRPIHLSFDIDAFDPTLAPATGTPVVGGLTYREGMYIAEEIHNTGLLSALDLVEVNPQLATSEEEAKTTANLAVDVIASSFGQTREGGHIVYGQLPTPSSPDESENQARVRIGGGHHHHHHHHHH

human ARG2 (trimer) = biological target: T1, human ARG2 (trimer) (Homo sapiens, UniProt P78540); assay: Mechanism of action study (effect on ARG2 Vmax and Km) in trimeric ARG2 enzyme inhibition assay; format: biochemical; conditions: for Km / Vmax: arginine 2.5-250 mM; for mode of action on ARG2: from effects on Vmax and Km
T1 construct: human ARG2 (aa23-354); His10 (C); made in house; host or cells: E. coli BL21 (DE3)
T1 sequence (P78540 23-354): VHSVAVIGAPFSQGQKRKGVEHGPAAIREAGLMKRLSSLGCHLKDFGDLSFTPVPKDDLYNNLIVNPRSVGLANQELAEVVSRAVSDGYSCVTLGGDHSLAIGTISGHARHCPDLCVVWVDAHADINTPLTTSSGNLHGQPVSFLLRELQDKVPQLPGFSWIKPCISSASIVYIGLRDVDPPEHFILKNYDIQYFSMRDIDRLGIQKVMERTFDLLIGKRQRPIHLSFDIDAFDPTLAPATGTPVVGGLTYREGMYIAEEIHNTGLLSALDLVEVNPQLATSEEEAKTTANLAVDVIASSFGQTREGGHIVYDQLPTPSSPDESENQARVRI
Excerpt: The mechanism of action of enzyme inhibitors can be broadly divided into competitive, uncompetitive and non-competitive and can be identified as such based on their effects on Km and Vmax.
A competitive inhibitor binds only to free enzyme, often at the active site, causing the affinity of the enzyme for the substrate to be reduced (increased Km) with no change to the maximum enzyme rate (Vmax).
The enzyme's affinity for the substrate is increased (Km is decreased) and the maximum enzyme rate (Vmax) is decreased.
A non-competitive inhibitor binds equally well to free enzyme and enzyme-substrate complex. The enzyme's affinity for the substrate (Km) is unchanged and the maximum enzyme rate (Vmax) is decreased. […]
The mechanism of action of the lead identification clone C0021158 IgG was investigated using the human ARG2 (trimer) enzyme inhibition assay as well as isothermal titration calorimetry.
The enzyme inhibition assay is described in section 1.5 and is a biochemical assay that measures production of urea, the product of L-arginine turnover by ARG2. To investigate the mechanism of action of C0021158 IgG, four point titrations of C0021158 IgG (1000, 100, 30 and 10 nM) were set up in the presence of 11 concentrations of arginine ([…]) and the reaction allowed to proceed for 80, 60, 45, 30, 15 or 5 minutes before the addition of the urea detection reagents O-Phthaldialdehyde and N-(1-Napthyl)ethylenediamine.
Raw data from each separate concentration of C0021158 IgG was plotted as a function of time for each concentration of arginine and fitted using a linear fit (GraphPad Prism) to derive initial velocities (slope values).
Initial velocity data was plotted against arginine concentration for each concentration of C0021158 IgG (FIG. 15A). Each trace was fitted to the Michaelis-Menten model (Y=Vmax*X/(Km+X)) in GraphPad Prism to derive maximum velocity (Vmax) and enzyme/substrate affinity (Km) values at each inhibitor concentration (Table 23).
In the case of C0021158 IgG inhibitor Vmax decreased in the presence of C0021158 IgG inhibitor, ruling out a competitive mode of action and pointing towards an uncompetitive or a non-competitive mode of action. To distinguish non-competitive from uncompetitive modes of action the effect on Km must be assessed. […] This uncharacteristic profile led to poor fitting of the data making it difficult to derive an accurate Km. The lack of accurate Km data means C0021158 IgG cannot be assigned as uncompetitive or non-competitive.

ARG2 = biological target: T2, ARG2 (Homo sapiens, UniProt P78540); assay: Isothermal titration calorimetry of BEC with ARG2 and ARG2-C0021158 fab complex; format: binding; parameters: human ARG2 (aa23-354); His10 (C); made in house; host or cells: E. coli BL21 (DE3); conditions: 20 μM ARG2 and 20 μM C0021158 fab, 0.50 mM BEC titrated, 25° C.
T2 sequence (P78540 23-354): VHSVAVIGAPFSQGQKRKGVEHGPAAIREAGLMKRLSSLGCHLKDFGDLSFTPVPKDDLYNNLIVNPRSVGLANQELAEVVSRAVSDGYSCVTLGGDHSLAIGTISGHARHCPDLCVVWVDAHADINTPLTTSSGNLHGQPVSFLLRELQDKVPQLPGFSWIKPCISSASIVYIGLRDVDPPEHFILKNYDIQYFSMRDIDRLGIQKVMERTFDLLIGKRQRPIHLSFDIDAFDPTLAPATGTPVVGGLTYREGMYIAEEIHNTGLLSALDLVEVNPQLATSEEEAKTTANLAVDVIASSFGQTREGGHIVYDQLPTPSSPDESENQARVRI
Description: To assess the accessibility of the ARG2 active site, we analysed binding of the ARG2 small-molecule inhibitor S-(2-Boronoethyl)-L-cysteine hydrochloride (BEC) by isothermal titration calorimetry (ITC) using a VP ITC (MicroCal) set to 25° C. (FIG. 15B). BEC is an arginine analogue that binds to the active site of ARG2. First, volumes of 10 μl of a solution containing 0.75 mM BEC were added to 20 μM of ARG2 (monomer concentration). The resulting thermogram was integrated using NITPIC and the binding isotherm was fitted with SEDPHAT using a one-binding site model. In a second experiment, volumes of 10 μl of 0.50 mM BEC were added to a solution containing a pre-incubated 1:1 molar mixture of C0021158 fab and ARG2 (both 20 μM, incubation 1 h at 20° C.).

Molecule	binding to biotinylated recombinant cynomolgus trimeric ARG2 enzyme [1]	Km (human ARG2 (trimer); 10 nM C0021158 IgG)	Vmax (human ARG2 (trimer); 10 nM C0021158 IgG)	Vmax (human ARG2 (trimer); 30 nM C0021158 IgG)	Km (human ARG2 (trimer); 100 nM C0021158 IgG)	Vmax (human ARG2 (trimer); 100 nM C0021158 IgG)	Vmax (human ARG2 (trimer); 1 μM C0021158 IgG)	mode of action on ARG2 (human ARG2 (trimer))	mode of action on ARG2 (human ARG2 (trimer); listed as C0021158 fab)	effect on binding of BEC to ARG2 (ITC) (ARG2)
B1	bound	–	–	–	–	–	–	–	–	–
B2	–	1640 µM	148.5 AU ms^−1	89.23 AU ms^−1	590 µM	112.8 AU ms^−1	103.4 AU ms^−1	not competitive	allosteric inhibitor	prevents BEC from binding
